Measurements: US20240084003A1 (SIMCERE ZAIMING PHARMACEUTICAL, published 2024)

Tests used:
[1] = target: T1, human CD22, endogenous on Raji cells (human, UniProt P20273 20-847); assay: FACS, Raji cells
T1 construct: whole, on cells; Endogenous protein of the Raji cell line
T1 sequence (looked up): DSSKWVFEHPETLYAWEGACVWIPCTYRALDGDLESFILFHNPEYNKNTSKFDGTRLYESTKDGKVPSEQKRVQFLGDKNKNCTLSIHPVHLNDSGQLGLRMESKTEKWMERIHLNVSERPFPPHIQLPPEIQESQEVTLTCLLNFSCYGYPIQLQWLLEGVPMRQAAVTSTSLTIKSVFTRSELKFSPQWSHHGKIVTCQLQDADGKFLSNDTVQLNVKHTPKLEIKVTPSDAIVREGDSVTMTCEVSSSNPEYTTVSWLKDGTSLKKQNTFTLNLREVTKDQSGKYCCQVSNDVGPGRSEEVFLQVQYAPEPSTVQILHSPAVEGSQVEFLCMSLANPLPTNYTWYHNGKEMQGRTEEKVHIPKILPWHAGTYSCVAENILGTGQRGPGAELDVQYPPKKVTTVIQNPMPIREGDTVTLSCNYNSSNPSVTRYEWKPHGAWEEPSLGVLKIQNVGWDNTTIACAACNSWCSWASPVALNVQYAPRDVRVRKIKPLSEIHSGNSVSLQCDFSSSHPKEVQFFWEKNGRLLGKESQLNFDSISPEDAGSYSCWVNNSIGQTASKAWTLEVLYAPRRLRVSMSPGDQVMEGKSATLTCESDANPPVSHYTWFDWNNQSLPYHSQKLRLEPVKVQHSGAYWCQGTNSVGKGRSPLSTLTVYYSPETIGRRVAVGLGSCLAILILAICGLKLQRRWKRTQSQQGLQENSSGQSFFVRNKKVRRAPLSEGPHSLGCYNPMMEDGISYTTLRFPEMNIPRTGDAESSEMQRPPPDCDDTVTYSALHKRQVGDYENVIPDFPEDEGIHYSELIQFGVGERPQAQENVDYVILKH
Text: (§1) The required cells were scale-up cultured in a T-75 cell culture flask to the logarithmic growth phase. For the adherent cell CHO-K1, the medium was aspirated, the cells were washed 2 times with PBS buffer, and then digested with trypsin. After the digestion was terminated, the cells were washed 2 times with PBS buffer. For suspension cell Raji, the medium supernatant was directly centrifuged and discarded, and the cell pellet was washed 2 times with PBS. After counting the cells in the previous step, the cell pellet was resuspended with [PBS+2% (w/w) BSA] blocking solution to 2×10⁶ cells/ml, and added to a 96-well FACS reaction plate at 50 μl/well, and then the chimeric antibody test sample was added at 50 μl/well, and incubated on ice for 2 hours. The mixture was centrifuged and washed 3 times with PBS buffer, Alexa Flour 488-labeled secondary antibody (purchased from Invitrogen, catalog number: A-11013) was added at 50 μl/well, and incubated on ice for 1 hour. The obtained mixture was centrifuged and washed 5 times with PBS, and FACS (FACS Canto™, purchased from BD Company) was used for detection and result analysis. Data analysis was performed by software (CellQuest) to obtain the mean fluorescence density (MFI)of the cells. And then software (GraphPad Prism8) was used for analysis, data fitting, and EC50 value calculation. […] The same method was used to detect the binding of the chimeric antibodies to endogenous CD22-negative cell MoLT4 cells (purchased from ATCC, CRL-1582) and CHO-K1 cells.

[2] = target: T2, human CD22, full length, on CHO-K1-human CD22 2C4 cells (human, UniProt P20273 20-847); assay: FACS, CHO-K1-human CD22 2C4 cells
T2 construct: Full-length human CD22 (NCBI NP_001762.2) stably transfected into CHO-K1
T2 sequence: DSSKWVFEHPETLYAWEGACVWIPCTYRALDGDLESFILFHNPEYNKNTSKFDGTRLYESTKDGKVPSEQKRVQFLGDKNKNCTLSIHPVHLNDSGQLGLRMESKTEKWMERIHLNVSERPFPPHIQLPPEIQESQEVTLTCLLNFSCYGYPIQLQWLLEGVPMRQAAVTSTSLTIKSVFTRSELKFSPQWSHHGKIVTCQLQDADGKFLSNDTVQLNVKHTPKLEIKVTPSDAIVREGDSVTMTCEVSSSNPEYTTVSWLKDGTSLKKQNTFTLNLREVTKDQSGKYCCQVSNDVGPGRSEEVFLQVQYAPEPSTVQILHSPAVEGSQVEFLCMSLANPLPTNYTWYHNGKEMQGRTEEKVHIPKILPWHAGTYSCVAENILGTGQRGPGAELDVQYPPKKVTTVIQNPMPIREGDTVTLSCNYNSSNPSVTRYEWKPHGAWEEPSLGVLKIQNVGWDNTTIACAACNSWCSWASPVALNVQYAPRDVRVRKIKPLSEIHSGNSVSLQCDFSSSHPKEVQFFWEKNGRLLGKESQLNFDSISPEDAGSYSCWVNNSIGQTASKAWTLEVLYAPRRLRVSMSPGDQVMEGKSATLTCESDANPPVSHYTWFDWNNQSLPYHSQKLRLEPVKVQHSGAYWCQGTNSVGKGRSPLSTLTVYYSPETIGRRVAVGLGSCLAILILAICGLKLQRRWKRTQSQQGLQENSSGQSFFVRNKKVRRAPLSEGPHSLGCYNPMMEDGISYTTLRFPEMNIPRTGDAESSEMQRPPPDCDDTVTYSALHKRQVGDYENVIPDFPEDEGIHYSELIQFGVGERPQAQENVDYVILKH
Text: as §1

[3] = target: T3, murine CD22 protein (ACROBiosystems, SI2-M52Ha) (murine, UniProt P35329 22-708); assay: ELISA, coated murine CD22, 100 nM Ab
T3 construct: extracellular domain; also called murine CD22-ECD; murine CD22-ECD-His
T3 sequence (looked up): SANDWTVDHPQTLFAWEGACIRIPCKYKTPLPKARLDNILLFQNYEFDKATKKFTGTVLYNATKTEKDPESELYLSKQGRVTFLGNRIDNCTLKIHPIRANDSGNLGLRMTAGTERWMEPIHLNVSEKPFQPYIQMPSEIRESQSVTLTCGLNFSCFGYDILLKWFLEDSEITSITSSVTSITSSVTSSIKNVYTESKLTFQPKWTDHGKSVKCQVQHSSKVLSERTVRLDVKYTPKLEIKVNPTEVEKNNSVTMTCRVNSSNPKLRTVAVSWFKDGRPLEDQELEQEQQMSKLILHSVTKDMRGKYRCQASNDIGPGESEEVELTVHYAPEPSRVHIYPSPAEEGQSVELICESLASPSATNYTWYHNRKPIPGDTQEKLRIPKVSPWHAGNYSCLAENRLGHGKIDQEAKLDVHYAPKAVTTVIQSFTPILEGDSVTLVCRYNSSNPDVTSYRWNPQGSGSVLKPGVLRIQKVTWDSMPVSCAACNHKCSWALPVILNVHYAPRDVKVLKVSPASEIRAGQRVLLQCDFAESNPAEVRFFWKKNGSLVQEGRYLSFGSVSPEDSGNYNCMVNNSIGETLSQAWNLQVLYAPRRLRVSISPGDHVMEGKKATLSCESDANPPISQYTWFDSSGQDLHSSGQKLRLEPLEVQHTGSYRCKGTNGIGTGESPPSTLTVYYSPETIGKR
Method in brief: (§2)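 Plates were coated overnight at 4° C with 2 μg/mL CD22 protein in PBS and blocked with PBS + 2% BSA. Chimeric antibodies were incubated for 2 h at 37° C, then HRP-labelled secondary for 2 h at 37° C. Bound antibody was read by TMB colour development (30 min, RT) stopped with 1.0 N HCl.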

[4] = target: T3, murine CD22 protein (ACROBiosystems, …); assay: ELISA, coated murine CD22, 0.001 nM Ab
Method in brief: as §2

[5] = target: T3, murine CD22 protein (ACROBiosystems, …); assay: ELISA, coated murine CD22, 0.00001 nM Ab
Method in brief: as §2

[6] = target: T3, murine CD22 protein (ACROBiosystems, …); assay: ELISA, coated murine CD22, 0.0001 nM Ab
Method in brief: as §2

[7] = target: T3, murine CD22 protein (ACROBiosystems, …); assay: ELISA, coated murine CD22, 0.01 nM Ab
Method in brief: as §2

[8] = target: T3, murine CD22 protein (ACROBiosystems, …); assay: ELISA, coated murine CD22, 0.1 nM Ab
Method in brief: as §2

[9] = target: T3, murine CD22 protein (ACROBiosystems, …); assay: ELISA, coated murine CD22, 10 nM Ab
Method in brief: as §2

B1: F2.151.13 human-murine chimeric antibody (antibody, human IgG1, lambda, V domains shown)
VH: QVHLQQPGTELMKPGASVKLSCKATGYTFRDYWLEWVKQRPGHGLEWIGEILPGSGNAYYNEKFKGKATFTADTSSNTAYMQLSSLTTEDSAIYYCARVYSNWYFDAWGKGTTVTVSS
VL: QAVVTQESALTTSPGETVTLTCRSSTGAVTTSNYANWVQEKPDHLFTGLIGGTNNQAPGVPARFSGSLIGDKAALTISGAQTEDEAIYFCALWFSNHWVFGGGTKLTVLG
notes: Chimeric, human IgG1 / lambda
EC50 [1]: 1.26 nM
Maximum mean fluorescence intensity [1]: 18800 MFI
EC50 [2]: 3.28 nM
Maximum mean fluorescence intensity [2]: 37000 MFI
OD450 [3]: 0.09 OD450
OD450 [4]: 0.07 OD450
OD450 [5]: 0.07 OD450
OD450 [6]: 0.07 OD450
OD450 [7]: 0.07 OD450
OD450 [8]: 0.07 OD450
OD450 [9]: 0.08 OD450

B2: F2.55.1 human-murine chimeric antibody (antibody, human IgG1, lambda, V domains shown)
VH: QVTLKESGPGILQPSQTLSLTCSFSGFSLSTFPLGVGWIRQPSGKGLEWLAHVWWNDDDYYNPALKSRLTISKDTSNTRVFLSVASVDTAETATYYCARLNWDRWYFDVWGTGTTVTVSS
VL: QLVLTQSSSASFSLGASAKLTCTLSSQHSAYTVEWYQQQPLKPPKYVMELKKDGSHSTGDGIPDRFSGSSSGADRYLSISNIQPEDEAIYICGVGDTVKEQFVFGGGTKVTVLG
notes: Chimeric, human IgG1 / lambda; VL tied by name
EC50 [1]: 0.41 nM
Maximum mean fluorescence intensity [1]: 18600 MFI
EC50 [2]: 0.82 nM
Maximum mean fluorescence intensity [2]: 42000 MFI
OD450 [3]: 0.09 OD450
OD450 [4]: 0.05 OD450
OD450 [5]: 0.06 OD450
OD450 [6]: 0.06 OD450
OD450 [7]: 0.05 OD450
OD450 [8]: 0.06 OD450
OD450 [9]: 0.06 OD450

B3: F2.42.9 human-murine chimeric antibody (antibody, human IgG1, lambda, V domains shown)
VH: QVTLKESGPGILQPSQTLSLTCSFSGFSLSTFDRGVGWIRQPSGKGLEWLAHIWWNDKKFYNPVLKSRLTISKDTSKNQVFLTIANVDSADTATYSCARIVWDKYYFDYWGQGIPLTVSS
VL: QLVLTQSSSASFSLGASAKLTCTLSSQHSAYTIEWYQQQPLKPPKFVMDLKKDGSHSTGDGIPARFSGSSSGADRYLTISNIQPEDEAIYICGVGDTIKEQYVFGGGTKVTVLG
notes: as for B2
EC50 [1]: 0.33 nM
Maximum mean fluorescence intensity [1]: 16700 MFI
EC50 [2]: 0.87 nM
Maximum mean fluorescence intensity [2]: 41000 MFI
OD450 [3]: 0.09 OD450
OD450 [4]: 0.07 OD450
OD450 [5]: 0.08 OD450
OD450 [6]: 0.08 OD450
OD450 [7]: 0.07 OD450
OD450 [8]: 0.08 OD450
OD450 [9]: 0.08 OD450

B4: F2.70.2 human-murine chimeric antibody (antibody, human IgG1, lambda, V domains shown)
VH: EVQLVESGGGLVKPGGSLKLSCAASGFTFSDYGMNWFRQAPEKGLEWVAYISRGSHTIYYADTVKGRFTISRDNAKNTLFLQMTSLRSNDTAMYYCVRMAGYYAMDYWGQGTSVTVSS
VL: QLVLTQSSSASFSLGASAKLTCTLSSQHSSYIIEWYQQQPLKPPKYVMELKKDGSHSTGDGIPDRFSGSSSGADRYLSISNIQPEDEAIYICGVGDTIKEQFVYVFGGGTKVTVLG
notes: Chimeric, human IgG1 / lambda
EC50 [1]: 0.35 nM
Maximum mean fluorescence intensity [1]: 16600 MFI
EC50 [2]: 0.76 nM
Maximum mean fluorescence intensity [2]: 39000 MFI
OD450 [3]: 0.1 OD450
OD450 [4]: 0.06 OD450
OD450 [5]: 0.06 OD450
OD450 [6]: 0.06 OD450
OD450 [7]: 0.06 OD450
OD450 [8]: 0.06 OD450
OD450 [9]: 0.07 OD450

B5: F2.180.16 human-murine chimeric antibody (antibody, human IgG1, lambda, V domains shown)
VH: EVKLVESGGGLVLPGGSLKISCAASGFTFSDYYMYWIRQTPDKRLEWVAYISNTGYSTFYPDSVKGRFTVSRDNAKNTLYLQMSRLQSEDTAMYYCARHGILYAMDYWGQGTSVTVSS
VL: QPVLTQSSSASFSLGASAKLTCTLSSQYSTYTIGWYQQQPLKPPKYVMELKHDGSRHTGDGIPDRFSGSSSGADRYLSISNIQPEDEATYICGVGDTIKEQFMYVFGGGTKVTVLG
notes: Chimeric, human IgG1 / lambda
EC50 [1]: 0.88 nM
Maximum mean fluorescence intensity [1]: 15700 MFI
EC50 [2]: 1.63 nM
Maximum mean fluorescence intensity [2]: 34400 MFI
OD450 [3]: 0.05 OD450
OD450 [4]: 0.05 OD450
OD450 [5]: 0.06 OD450
OD450 [6]: 0.07 OD450
OD450 [7]: 0.05 OD450
OD450 [8]: 0.05 OD450
OD450 [9]: 0.06 OD450

B6: F2.104.10 human-murine chimeric antibody (antibody, human IgG1, lambda, V domains shown)
VH: EVQLVESGGGFVKPGGSLKLSCAASGFTFSDYGMNWFRQAPEKGLEWVAYISRGSHTIYYADTVKGRFTISRDNAENTLFLQMTSLRSNDTAMYYCVRMAGYYAMDYWGQGTSLTVSS
VL: QLVLTQSSSASFSLGASAKLTCTLSSQHSSYIIEWYQQQPLKPPKYVMEVKKDGSHSTGDGIPDRFSGSSSGADRYLSISNIQSEDEAIYICGVGDTIKEQFVYVFGGGTKVTVLG
notes: Chimeric, human IgG1 / lambda
EC50 [1]: 0.4 nM
Maximum mean fluorescence intensity [1]: 16300 MFI
EC50 [2]: 0.88 nM
Maximum mean fluorescence intensity [2]: 40600 MFI
OD450 [3]: 0.07 OD450
OD450 [4]: 0.06 OD450
OD450 [5]: 0.05 OD450
OD450 [6]: 0.06 OD450
OD450 [7]: 0.07 OD450
OD450 [8]: 0.06 OD450
OD450 [9]: 0.07 OD450
